# From the DeepSol protein solubility set
# Experiment: soluble on expression in E. coli; label from the status in PepcDB or PDB records
row,Sequence,soluble on expression in E. coli
1,MLSRAGKHRQLPSLRASQAEASPICSELEDKHKNVQEPDGISNHFLQEKKFAGSESKEYKRKDVVLYREKLLAPEVTNLVSREQMMMHPRDQYLHVLSPYCYSAIEVSHAVFSIFAYIVCDVNWSREYCSKHTTCKQDFKTMIIAVMREYLSMGEAADISRLPRAAMFNLQQAGQLATPTASGTQRRAEPETYVDLHALSDKINHLKTHCNYQIRRDRAFPPMVNLFEIEPRVPVKMSYFLAECKTYGIHQCLHPVSATVKQIDQAFLPAWKARVLFMLGWMDNFFDEDMDDLKRCIRKAINFKVPLKTWESEEDLMVVILEQNQAKLKLARECLTTISKCEHADPHDWLHCNRKRRERHFIVCEYKNPGIWHSSEILKISLKILRQCMGHATLDLKEVNVKSENKIGSDASPDVPLDKKKLKRQKQKLRKAAEPPEPTPPPPPPVIPVPEAKPCEKCFRTSERCNKANAELKTSLNKIKILEKKLSAEKRAFKENQETWEKKLEELQTELQAKERTIQEFQDKVAPKCAESVSDGFLRDGEELIATFDVTSSNATEEFESECIICREDIDLENGTVQCPRCTEIYHSHCATQWLSQKPTCPKCIFHIGHINEFPSLV,not soluble
2,MKEVPMILEICVDDVAGLEAAVRGGADRIELCAALSGGGVTPSAGFMQRAATYGLPVSVMIRPRAGDFVFTHDEADVMKRDIDAARAAGLSGVVLGASRGDGSLDMALLEDLRRHADGMDATLHRAFDVAPDMEEALEAAISLGFPRILTSGGARSALEGVKTLARLSELAKGRIVIMPGAGVRPQSVQALLDSFPITEIHASCSAVPLYDPESRVAKLGFTGAGRKATDEAAVRELKTILSAHHKGGATLLEHHHHHH,soluble
3,MAVSQGVSLKEDLKDLVRKAEEIGRELSGKLKTNQLRKFHGHLTKIWSNYIYKKKDYRDNPEKFNEEILNELHFMKIFLAYQVGRDIEGISELKEILEPLIDEIKTPDEFEKFKKFYDAILAYHKFHSESEKSNRRTARR,not soluble
4,MTGTYTELIEGSERLSGLTDVDEVIKDLSRLLRKLVKTRWIAVYFFDRERRDFAPARSTGLPASFLPVFREMPLAPDKIPLLKSMLRKRQHLMLTDPGSSDLLTPKLRKLLRNLCVLAVPMVVRTQVIGAVFMARTRDNPPFSDAETAIIRDLVSHAALVVSHMQLFDE,not soluble
5,MSRKNILQGLMAGTPSPAPAAAERPRATKGAIGAVSRSIADLKARAVIEVDPFLIDAGGLQDRLESDAAEDAELARSIATYGQQVPVLVRPHPTDENRFQIVYGRRRVLALRDLGQPVKALVRDLDDREAVLAQGQENTARRDLSFIEKVNFARQMADAGYDRKAICDALSVDKTLISRMVSVSERVPVALIEAIGAASGIGRDRWLALAELMEKTDDDLDTLISTMSLTAEGQGSDQRFEALFSYLSGQRRREPPAPLRTEPITGHDGRPLGDVSRGAASVVLRLRRSHAKGFEEWLLQNLPDLHRSWQSDRNGK,not soluble
6,MKLNLEREKKILLKNRNRYRYFHKPGVSIIVCTNKMKYIENIFSNYSRINYPIKEMIIILNKMNLNISKYKKVAERFSNVRIIKKPENVTLGKCLNYGVDISKYNYIFKMDDDDYYGENYICDEITSLIYTNSDIVGKASFFVYYEGYGRLEIMYPEGNEKYIPNVAGSTLLIKKSVFNKVRFRNISLAEDACFIEDCCKQGIKIYSCNRFNYVYFKHRSLNDHTWKISSEDLMKVTKKVGKYKNYLPIVTILEHHHHHH,not soluble
7,MGNILIVKLSRRELSYLLSVKKYNDEGKPAKLSWISKDLNVSVASAYEEISHLESKGFLKKSDKGIFITDEGKKAIDSLLRAHRVIETFLVKIGLSPDQACNYTKQFDYSVPDEVIERIYEYLGKPEKCPHGENIPY,soluble
8,MGSDKIHHHHHHVDDGPCAARLRWTNSVMTEPLMPQTDVPFDELIIREYLLDNPDFFNRYPELLLAMRLPHMERGAISLVERRQEMLRQRVSQLEEEITSLLTMAARNEKIYQFNTELSFQLLNCADLVSLKEVLADSLKLQFNFSHVRLISVLDTDMKAIWDQRLHKGHYFGRLTQQEAKRLFGSEVGSVALTKLSEDNPVIFAIASQDATHFHPDMDNMLLEQLRRLLAHMLAKL,not soluble
9,MGSDKIHHHHHHMKIIQLEYFLAIVKYNSFTKAAQFLHISQPSLTATIKKMEADLGYDLFTRSTKDIKITEKGIQFYRYASELVQQYRSTMEKMYDLSVTSEPRIKIGTLESTNQWIANLIRKHHSDYPEQQYRLYEIHDKHQSIEQSLNFNIHLAITNEKITHEDIRSIPLYEESYILLAPKETFKNQNWVDVENLPLILPNKNSQVRKHLDDYFNRRNIRPNVVVETDRFESAVGFVHLGLGYAIIPRFYYQSFHTSNLEYKKIRPNLGRKIYINYHKKRKHSEQVHTFVQQCQDYLYGLLEAL,not soluble
10,MKKLFNQVLVAAGVLALLAGCASEEENVIMAPLPIVKSEFTPKTLWSASVGDGVGHYFSKLAPDYAYDKVFVASRDGVVKALDPQNGKVIWTTDLEIEGSARLSGGITAAFGKLFIGSENGVVNALDAETGEPLWASAIEGEVLAAPAADNNIVIVNTSRGALIALNQEDGAQKWTISTEVPNLTLRGDSRPTAVAGGVFWGTPSGRLAAAIAERGQLIWQQPVGQPKGATEIDRLVDVDASPLVIGGTLFTVGFNGQLIAIDLRSGQPIWKRNYSSATDMATDGSRLYLVTDKDHLVAVDTRSGTELWSNTQLEHRLLTAPKMIDDYLVVGDAEGYLHWIDRNSGEFIAQQLVNDSGFAVGPLALNDGYVIVTRNGQIKKLTIQQ,not soluble
11,MSLILCIDVGNSHIYGGVFDGDEIKLRFRHTSKVSTSDELGIFLKSVLRENNCSPETIRKIAICSVVPQVDYSLRSACVKYFSIDPFLLQAGVKTGLNIKYRNPVEVGADRIANAIAATHSFPNQNIIVIDFGTATTFCAISHKKAYLGGAILPGLRLSADALSKNTAKLPSVEIIKTESVVGRSTIESIQSGVYYGVLGACKELIQRIHHEAFNGDQILILATGGFASLFDKQGLYDHLVPDLVLQGIRLAAMMNTAEGHHHHHH,soluble
12,MPPMHLLKSKVHIAEALNDETTMSLLKKIVSKKCISKISQWKNELSSNLDG,not soluble
13,MTMKMSGTEIQKHFKTLKGTIAITSIEDGDGSHVVWTFDFEKVHKDIDDSHSIIDETVKYLKELDEVLLKFHE,soluble
14,MSLSSDMEGGMITMKANDTTKYLIHAEIEAEGVVERPDVVGAIFGQTEGLLGGDLDLRELQKTGRIGRIEVKIESKGGRSFGEIKVPSSLDKVETAILAAALETIERVGPCSAKIKVLKIEDVRASKRKRIVERAMNILREHFEEPEIESERIVEIVRQAIRADEIVEYGEEKLPAGPAIDESDAIIVVEGRADVLNLLKHGIKNVIAVEGTNIPKTIVELSKKKTVTAFLDGDRGGDLILKELLQVAEVDYVARAPEGKEVEDLTQKEILKSLRNKVPVEQLHVLKKEAKEGREREKLAEMPKDSISDVLRKHTESVKGRLTARVLDRNLNVIKEVPVRDLVKILKTNNMKGSAIVFDGIITQRLIDLAAKKEFDYIVGVRLGSVVKVPTSLRVITFDQLEGHHHHHH,not soluble
15,MRRELGMGSEWLGEECEIVMGQSPPSETCNTVGIGIPLLNGPTEFGPHHPSPAQFTTDVRKRAIPGDILFCVRGSTTGRMNWADQEYAIGRGIAAIRHKFKPELQPFVRAVIECYLPELLAQATGSTFPNVSAQQLSNLKWPELAADEQRAIAYILGTLDDKIELNRKQNETLEAMARALFKAWFVDFEPVRAKLEGRWQRGQSLPGLPAHLYDLFPDCLVDSELGEIPEGWEIGSFADVVEIIGGSTPKTSVSEYWGGDIPWFSVVDTPASSDVFVVQTEKSITQSGLNESSARLISKGTTIISARGTVGNLAIAGCDMTFNQSCYALRSKNSLGSYFVFLSAQRMVEQLKAMAHGSVFSTITRQTFEAVQTVLPPENVLQQFERSFASLFDEILNNVNESRTLAKLRDTLLPKLISGELRVNDAKRILARIELDTATQRREQ,soluble
16,MAGPVFPWRDGNQFELLIDGPAFFPRMLLAIMRAEFQVDLELYLVEAGACAEAVVDALEQAARRGVRVRCLFDDYGSLAFNSALRQRLLDAGVYLRWYNRLRWKRGLRNLYRDHRKLLLVDERWAVVGGTGVTDEFWTPGEATSEWHEVMVQMQGPVVSDWQLLFDRQWQANNRRTAWRPAEGFGLPRLPKVPAQGQGMGRVAYADARQHQDILHALVRALNSGQKRVWLATPYFLPTWSVRRSLRRAASKGLDVRLLLTGPRTDHPSVRYAGHRYYPRLLRAGVRIFEYQPCFLHLKMAVVDDWVSVGSCNFDHWNLRFNLEANIEALDPPLTAAVVASFERDFAQSEEVDLAHWHARPWWRRVKQRIWGWLDRLVVNFLDRRD,not soluble
17,MGSDKIHHHHHHMKLSDFIKTEDFKKEKHVPVIEAPEKVKKDEKVQIVVTVGKEIPHPNTTEHHIRWIKVFFQPDGDPYVYEVGRYEFNAHGESVQGPNIGAVYTEPTVTTVVKLNRSGTIIALSYCNIHGLWESSQKITVEE,soluble
18,MGSDKIHHHHHHMFAHCDVNAFYASCQTAFRPDLKGRPVVVLSNNDGCVIARSAEAKPFVKMGEPYFKQKAAFLRHGVVAFSSNYELYADMSSRVMATLEELTPRCEIYSIDEAFCDVSGVRHCRDLTDFGREIRATVLQRTHLTLGVGIAQTKTLAKLANHAAKQWPRQTGGVVDLSCPQRQRKLMALLPVSEVWGIGRRIGKKLEAMGIGTVLQLAESDIRFIRKHFTVVLERTVRELRGEPCLALEEFAPAKQEIICSRSFGDRITAYEDMRQAICSYAARAAEKLRGEHQYCRFVSAFVKTSPFALNEPYYGNSASLKLLTPTQDSRDIIAAATSCLDAIWKAGHRYQKAGVMLGDFYSQGVAQLNLFDELAPRHNSARLMQVLDQLNAKNGRGALYFAGQGIQQQWQMKREMLSPRYTTRYGDLLRVR,not soluble
19,MIKILQTKSGVTKFQVLIEIAAHQPNVRQKEIAAKIGITPQAVSEYIKELVNDGLIVTEGRVRYRITKEGVEWVLENATEMKQYARFVMEDIISHVSTWTAITREEVKEGQQVYLKMDHGLLYVSSREVTGASGAIISDAAEGEDVGVTSLKGLIDLENATITICKVPRVERGGSRKVDLERLKMLADAKPYIAAIGVESLIALRKIGISPNVMFGTNESVIEAAYHGLSSLVVSVDEQVSALLNRLETENLEYELVDLTVE,not soluble
20,MSDITLDIADFHWVTQILDTMDSGLIVLDPEYNVCVWNSFMQSYSGVLSQDILGQCLFDHFDELPRTWLETKLKASADLETRSFSSWENRPYLFKFNNFSPVSNSCDFMFQDIVITPLRSLSGEVSHIAIQVNDVSETARNRIHLRETNQHLSEISRKDGL,not soluble
21,MEANSGGGGGAEGGRAVTGGGGGGGGSDVELVSKTLQVEHKLFYFDLKENPRGRYLKISEKTSATRSTIIVPSSGISWFLDLFNYYVNSEEHELFSKELQLDSKVFYFDIGENRRGRFLKVSEASVSRNRSTIIVPAGSSPDEGWAAFRNILAEIHEASGLFVMPNQKPSDGQEHLVDDVGAGFIPGHGSQQPSSSEHNVDRTIDSPGSDRSSIILPLSGLKQFHEVIGHFVEITKDKIEVLILLEDGNFQSSNHLNLATSSRLPDRGVQ,soluble
22,MGTFATTYEKIQDFNWLTRFLHAGRYRKLLEVLETVQKDVGNRKVRILDIGCGPGTAVGHILERFDVEYVGIDYDPIFIDAARNRYGKNENCRFIVGDATDERLYETIQADIVIALETLEHIHLNRTVRVIEHVCTIIRPRIFLVTVPVEVGPAVWIKNWGSALMGYNRQSGNLKETFWAGLYRMDRVPAHHTSHQGFDWRCLAQLIRVNAPLREIRSLPFSFVPRLLSPNVALIAEPVKSTIDLANDDPEAWKINHGQTAFQRPHIVDETDAARHAKSLATWSMRLKGLLGMALATMPFAWHRWSYISISPGEAQSSHFLLTIDKHLLPPHQSIEGDTILLAAQAIVQRVSDASYLLT,not soluble
